This is an account of results in US20220242941A1 (NOVOBIND LIVESTOCK THERAPEUTICS, published 2022).

Substitutions are numbered along the chain they refer to.

B1: NBX16038 (VHH)
VHH: QVQLQQSGGGLVQSGGSLRLSCTATRSTISGYGGRWYRQAPGKQREFVALLSSGGMTRYADSVMGRFTISRDDIKNTLYLQMNTLKPEDTAVYYCNTFDGAWGQGTQVTVSS
B2: NBX16036 (VHH)
VHH: QVQLQESGGGLVQAGGSLRLSCVALGNIGWINDMGWYRQAPGKERELVARISSAEATNYADAVKGRFTISRDDAKNTVYLQMNSLKPEDTAVYSCHTRRWYDDGYDYDTWGQGTQVTVSS
B3: NBX16035 (VHH)
VHH: QVQLQESGGGLVQAGGSLRLSCAASGSIFSINVIGWYRQVPGKERELVANSGSTTKYADSVKGRFTISRDNAKNTVDLQMNSLKPEDTAVYYCNAVVTSRTSLGLRSYVYWGQGTQVTVSS
B4: NBX16037 (VHH)
VHH: B3 VHH with E6Q, N50K, G52D, S53R, L103Q, V109A
B5: NBX16041 (VHH)
VHH: B3 VHH with V40A, V109A
B6: NBX16043 (VHH)
VHH: QVQLQESGGGLVQAGGSLRLSCAASGIAFSMFDMVWYRQAPGKQRELVASVSDGGSTAYADSVKGRFTISRDNAKKMVYLQMNSLKPEDTAVYYCKAARSWAYGSGYWGQGIQVTVSS
B7: NBX16040 (VHH)
VHH: QVQLQESGGGMVQAGGSLRLSCAASGTTITINTMRWYRQPPGKERELVASIVPSGKTYYADSVKGRFTISRDNHKNTMYLQMNSLKPEDTAVYYCNSDGRFRGIGTYWGQGTQVTVSS
B8: NBX16039 (VHH)
VHH: QVQLQQSGGGLVQAGGSLRLSCTTSGIIFSFSLLNVGWYRQAPGKERELVARMSTAGNTYYSTSVKDRFTISRDNGKNTVDLQMNSLNADDTAVYYCNLRRSWAPSDSGFWGQGTQVFVSS
B9: NBX16034 (VHH)
VHH: QVQLQESGGGVVQAGGSLRLSCVASGSDTSVYAMRWWRQVPGKERLLLASITSGGTVRYAESVKGRFTISRDDAKNTLYLQMNSLKTEDTAVYLCNAERVLARQNYWGQGTQVTVSS
B10: NBX16033 (VHH)
VHH: QVQLQESGGGTVQAGGSLRLSCAVSGSTFSSYSMNWYRQGPGNQREWVGGIRSNDSTYYADSVKGRFTISRDNAKNAWNLQMNSLKSEDTAVYYCNFWDGSFNQYWGQGTQVTVSA
B11: NBX16042 (VHH)
VHH: QVQLQESGGGLVQAGGSLRLSCVASGITFNFNYYVMGWYRQAPGKQRELVARISDGGNTNYADSVKGRFTISRDNTKNTGYLQMNSLKPEDTAIYYCNLRRSWAPADNGHWGQGTQVTVSS

In this assay the target is T1, GST fusion of the EtAMA1-binding peptide of EtRON2 (Eimeria tenella, UniProt P08515 1-218 = GST).
T1 construct: Expressed in E. coli, purified as the other antigens but without TEV cleavage, so a His tag and TEV site probably remain; also called GST-RON2 peptide
T1 sequence (P08515 1-218, tags or fused parts left off): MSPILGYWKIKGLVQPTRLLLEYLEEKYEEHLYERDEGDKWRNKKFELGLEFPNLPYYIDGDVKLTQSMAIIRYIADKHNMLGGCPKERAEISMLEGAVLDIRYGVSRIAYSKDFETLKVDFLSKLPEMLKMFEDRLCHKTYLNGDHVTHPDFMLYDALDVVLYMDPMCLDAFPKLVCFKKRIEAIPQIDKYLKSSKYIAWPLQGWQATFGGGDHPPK
Description: phage ELISA, wells coated with GST-RON2 peptide.
Consider B1, for which the “binding relative to GST-coated wells” value is at least 3 times and the “binding relative to PBS-coated wells” value is at least 4 times.

Consider B2, for which the “binding relative to GST-coated wells” value is at least 3 times and the “binding relative to PBS-coated wells” value is at least 4 times.

B3: the “binding relative to GST-coated wells” value was at least 3 times and the “binding relative to PBS-coated wells” value was at least 4 times.

For the molecule B4, the “binding relative to GST-coated wells” value is at least 3 times and the “binding relative to PBS-coated wells” value was at least 4 times.

For B5, the “binding relative to GST-coated wells” value was at least 3 times and the “binding relative to PBS-coated wells” value was at least 4 times.

Consider B6, for which the “binding relative to GST-coated wells” value is at least 3 times and the “binding relative to PBS-coated wells” value was at least 4 times.

Take B7: the “binding relative to GST-coated wells” value is at least 3 times and the “binding relative to PBS-coated wells” value was at least 4 times.

As for B8, the “binding relative to GST-coated wells” value is at least 3 times and the “binding relative to PBS-coated wells” value was at least 4 times.

Regarding B9, the “binding relative to GST-coated wells” value is at least 3 times and the “binding relative to PBS-coated wells” value was at least 4 times.

Turning to B10, the “binding relative to GST-coated wells” value is at least 3 times and the “binding relative to PBS-coated wells” value was at least 4 times.

On to B11, for which the “binding relative to GST-coated wells” value is at least 3 times and the “binding relative to PBS-coated wells” value was at least 4 times.
